In test [1] the target is T1, Human IL2Rγ extracellular domain expressed with a C-terminal mouse IgG2a Fc tag (human).
T1 construct: whole entry is the Fc-fused construct; also called hIL-2Rg-mFc
T1 chain: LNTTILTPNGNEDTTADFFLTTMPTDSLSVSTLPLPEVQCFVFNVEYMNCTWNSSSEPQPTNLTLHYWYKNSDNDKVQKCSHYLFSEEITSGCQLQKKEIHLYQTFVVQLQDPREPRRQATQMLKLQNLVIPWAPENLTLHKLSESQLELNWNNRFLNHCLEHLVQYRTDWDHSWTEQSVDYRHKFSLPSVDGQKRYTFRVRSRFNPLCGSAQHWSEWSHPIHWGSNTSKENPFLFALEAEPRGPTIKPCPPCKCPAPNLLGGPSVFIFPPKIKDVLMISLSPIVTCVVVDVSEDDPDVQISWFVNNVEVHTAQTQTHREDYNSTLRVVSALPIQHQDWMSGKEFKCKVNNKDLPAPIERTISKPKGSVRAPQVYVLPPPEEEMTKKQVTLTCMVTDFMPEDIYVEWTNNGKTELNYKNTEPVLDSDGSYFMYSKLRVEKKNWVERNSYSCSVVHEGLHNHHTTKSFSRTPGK
Put plainly: SPR Biacore 4000, anti-hFc-captured mAb, 25 C. As to the method: (§1) Equilibrium dissociation constants (KD values) for IL-2Rγ binding to purified anti-IL2Rγ monoclonal antibodies were determined using a Biacore 4000 instrument equipped with a real-time surface plasmon resonance biosensor. All binding studies were performed in 10 mM HEPES, 150 mM NaCl, 3 mM EDTA, and 0.05% v/v Surfactant Tween-20, pH 7.4 (HBS-ET) running buffer at 25° C. and 37° C. The Biacore sensor surface was first derivatized by amine coupling with a monoclonal mouse anti-human Fc antibody (GE, # BR-1008-39) to capture anti-IL2Rγ monoclonal antibodies.
(§2) The dissociation of monoclonal antibody bound IL2Rγ reagents were monitored for 8-10 minutes in HBS-ET running buffer. Kinetic association (kₐ) and dissociation (kd) rate constants were determined by fitting the real-time sensorgrams to a 1:1 binding model using Scrubber 2.0c curve fitting software. Binding dissociation equilibrium constants (KD) and dissociative half-lives (t_{1/2}) were calculated from the kinetic rate constants as: […]
In general terms: SPR reads the build-up and loss of mass on a sensor chip optically.

For test [2], the target named is T2, Mouse IL2Rγ extracellular domain expressed with a C-terminal myc-myc-hexahistidine tag (mouse).
T2 construct: whole entry is the tagged construct; also called mIL-2Rg-MMH
T2 chain: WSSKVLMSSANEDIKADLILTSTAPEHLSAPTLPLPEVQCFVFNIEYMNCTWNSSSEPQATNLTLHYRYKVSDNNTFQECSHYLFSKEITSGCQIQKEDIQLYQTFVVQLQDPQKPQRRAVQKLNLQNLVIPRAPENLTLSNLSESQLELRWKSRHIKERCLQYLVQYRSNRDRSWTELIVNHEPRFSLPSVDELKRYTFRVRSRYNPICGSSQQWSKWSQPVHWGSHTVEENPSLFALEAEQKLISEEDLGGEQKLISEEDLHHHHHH
Put plainly: SPR Biacore 4000, anti-hFc-captured mAb, 25 C. The procedure: as §1, §2

For test [3], the target named is T3, Rat IL2Rγ extracellular domain expressed with a C-terminal myc-myc-hexahistidine tag (rat).
T3 construct: whole entry is the tagged construct; also called rIL-2Rg-MMH; rat IL-2Rg-MMH
T3 chain: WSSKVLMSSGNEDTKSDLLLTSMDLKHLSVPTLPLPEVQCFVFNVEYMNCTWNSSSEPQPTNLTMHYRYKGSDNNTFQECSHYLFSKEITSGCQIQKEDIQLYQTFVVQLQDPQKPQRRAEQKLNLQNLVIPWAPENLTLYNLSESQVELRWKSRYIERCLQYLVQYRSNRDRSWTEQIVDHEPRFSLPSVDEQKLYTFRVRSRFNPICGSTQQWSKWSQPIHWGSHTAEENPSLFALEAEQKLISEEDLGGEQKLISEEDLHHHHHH
Put plainly: SPR Biacore 4000, anti-hFc-captured mAb, 25 C. As to the method:
as §1, §2

Test [4] addresses T4, Macaca fascicularis IL2Rγ extracellular domain expressed with a C-terminal myc-myc-hexahistidine tag (Macaca fascicularis).
T4 construct: whole entry is the tagged construct; also called mfIL-2Rg-MMH
T4 chain: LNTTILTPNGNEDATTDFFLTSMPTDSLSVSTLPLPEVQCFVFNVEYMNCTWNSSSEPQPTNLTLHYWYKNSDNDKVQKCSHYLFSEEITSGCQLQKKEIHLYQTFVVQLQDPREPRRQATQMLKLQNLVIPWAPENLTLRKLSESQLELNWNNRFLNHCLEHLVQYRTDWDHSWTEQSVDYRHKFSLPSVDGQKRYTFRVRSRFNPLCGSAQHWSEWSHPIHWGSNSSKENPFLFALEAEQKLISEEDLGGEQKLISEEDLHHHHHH
Put plainly: SPR Biacore 4000, anti-hFc-captured mAb, 37 C. The procedure:
as §1, §2

In test [5] the target is T1, Human IL2Rγ extracellular domain …. Nature of the test: SPR Biacore 4000, anti-hFc-captured mAb, 37 C. As to the method:
as §1, §2

The target of test [6] is T2, Mouse IL2Rγ extracellular domain …. Nature of the test: SPR Biacore 4000, anti-hFc-captured mAb, 37 C. The procedure:
as §1, §2

The target in test [7] is T3, Rat IL2Rγ extracellular domain …. Put plainly: SPR Biacore 4000, anti-hFc-captured mAb, 37 C. The procedure: as §1, §2

B1: H4H13544P2 (antibody, human IgG4 S228P, kappa, V domains shown)
VH: QLQLQESGPGLVKPSETLSLTCTVSGGSISIKNYYWGWIRQPPGKGLEWIGSIYYSGTTYYNPSLKSRVTISVDTSKNQFSLKLSSVTAADTAVYHCARHGYSYGHGWFDPWGQGTLVTVSS
VL: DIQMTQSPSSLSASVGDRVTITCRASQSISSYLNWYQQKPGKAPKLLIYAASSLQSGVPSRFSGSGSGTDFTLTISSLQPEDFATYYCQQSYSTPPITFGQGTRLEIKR
notes: fully human anti-IL2Rgamma mAb, human IgG4 Fc
Turning to B1, in test [1], the “50 nM Ag Bound” value was determined as 63 RU; the Kd (as a rule, the free concentration of one partner at which half of the binding sites on the other are occupied at equilibrium, for simple one-to-one binding) came out at 2.21 nM; the koff (in general, the first-order rate constant of dissociation) was 0.000246 s⁻¹; the on-rate (kon) (commonly the second-order rate constant of association) was 111000 M⁻¹ s⁻¹. The t1/2 in test [1] came to 47 min. For the same molecule, in test [2], the “100 nM Ag Bound” value is 3 RU and the binding result was “no binding (tested: 100 nM)”. Moreover, in test [3], the “100 nM Ag Bound” value worked out at 3 RU and the binding result is “no binding (tested: 100 nM)”. In addition, in test [4], the “100 nM Ag Bound” value was 60 RU, the Kd stood at 52.1 nM, the koff is 0.00612 s⁻¹ and the kon is 118000 M⁻¹ s⁻¹. In test [4], the t1/2 stood at 1.9 min. Besides, in test [5], the “50 nM Ag Bound” value came to 88 RU, the dissociation constant Kd amounted to 6.33 nM, the koff worked out at 0.000801 s⁻¹ and the kon turned out to be 126000 M⁻¹ s⁻¹. In test [5], the t1/2 was determined as 14 min. Moreover, the “100 nM Ag Bound” value in test [6] was 4 RU. In addition, the “100 nM Ag Bound” value in test [7] was 4 RU.

B2: H4H13538P (antibody, human IgG4 S228P, kappa, V domains shown)
VH: EVQLVESGGGLVQPGGSLGLSCAASGFTFSNYAMSWVRQAPGKGLEWVSAVSGGGGGTYYADSVKGRFTISRDNSKNTVLLQMNSLRAEDTAVYYCARGRTGGLDYWGPGTLVTVSS
VL: DVVMTQSPLSLPVIFGQPASISCRSSQSLVDSDGNTYLNWLQQRPGQSPRRLIYEVSNRDSGVPDRFSGSGSGTDFTLTISRVEAEDVGIYYCMQGTRWPPTFGGGTKVEIKR
notes: as for B1
Take B2: the “50 nM Ag Bound” value in test [1] came to 38 RU; in test [5] it was 70 RU. Also, the Kd in test [1] was determined as 0.996 nM; in test [4], 5.5 nM; in test [5], 1.29 nM. The dissociation rate constant (koff) in test [1] amounted to 0.000116 s⁻¹; in test [4], 0.000932 s⁻¹; in test [5], 0.000187 s⁻¹. Further, the kon in test [1] stood at 117000 M⁻¹ s⁻¹; in test [4], 169000 M⁻¹ s⁻¹; in test [5], 144000 M⁻¹ s⁻¹. Besides, the t1/2 is 99 min in test [1], 12 min in test [4] and 62 min in test [5]. Further, the “100 nM Ag Bound” value in test [2] stood at 4 RU; in test [3], 3 RU; in test [4] it was 115 RU; in test [6], 5 RU; in test [7] it was 5 RU. Further, the binding result in test [2] and in test [3] was “no binding (tested: 100 nM)” in each case.

B3: H4H13541P (antibody, human IgG4 S228P, kappa, V domains shown)
VH: EVQLVESGGGVVRPGGSLRLSCAASGFIFDDYDMSWVRQPPGRGLEWVSGIDWFGGTRGYADSMKGRFTISRDNAKNSLYLQMNSLRVEDTAFYYCARGGAIVGAVTPFDYWGQGTLVTVSS
VL: DIQMTQSPSSLSASVGNRVTLSCRASQSINTYLSWYQQRPGKAPKLLIYAASSLQSGVPSRFSGSGAGTDFTLTISSLQPEDFATYYCQQSYSAPLTFGGGTKVEIKR
notes: as for B1
Take B3: in test [1], the “50 nM Ag Bound” value was found to be 24 RU, the Kd amounted to 1.8 nM, the koff is 8.84e-05 s⁻¹ and the kon worked out at 49200 M⁻¹ s⁻¹. Further, the t1/2 in test [1] was determined as 131 min. Further, in test [2], the “100 nM Ag Bound” value stood at 5 RU and the binding result was “no binding (tested: 100 nM)”. In test [3], the “100 nM Ag Bound” value was 4 RU and the binding result is given as “no binding (tested: 100 nM)”. Moreover, in test [4], the “100 nM Ag Bound” value stood at 111 RU, binding was put at a Kd of 7.1 nM, the off-rate constant (koff) turned out to be 0.000755 s⁻¹ and the on-rate constant (kon) turned out to be 106000 M⁻¹ s⁻¹. The molecule also yielded a t1/2 in test [4] of 15 min. Besides, in test [5], the “50 nM Ag Bound” value was 42 RU, the dissociation constant (Kd) came out at 2.18 nM, the off-rate constant (koff) was 0.000122 s⁻¹ and the kon came out at 56000 M⁻¹ s⁻¹. In test [5], the t1/2 stood at 94 min. In addition, the “100 nM Ag Bound” value in test [6] was determined as 4 RU. Besides, in test [7], the “100 nM Ag Bound” value amounted to 5 RU.

B4: H4H12924P2 (antibody, human IgG4 S228P, kappa, V domains shown)
VH: EVQLVESGGGLVQPGRSLRLSCAASGFTLEDYAMHWVRQAPGKGLEWVSGISWNRGSTGYADSVKGRFTISRDNAKNSLYLQMTSLRAEDTALYYCAKGFYSMDVWGQGTTVTVSS
VL: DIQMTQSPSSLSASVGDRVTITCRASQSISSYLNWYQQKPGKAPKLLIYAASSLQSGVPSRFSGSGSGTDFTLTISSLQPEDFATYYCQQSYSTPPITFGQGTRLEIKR
notes: as for B1
For the molecule B4, in test [1], the “50 nM Ag Bound” value amounted to 28 RU, the Kd was 5.66 nM, the koff amounted to 0.000411 s⁻¹ and the kon was 72600 M⁻¹ s⁻¹. For the same molecule, in test [1], the t1/2 came to 28 min. In addition, in test [2], the “100 nM Ag Bound” value was 2 RU. Besides, in test [3], the “100 nM Ag Bound” value stood at 3 RU and the binding result is recorded as “no binding (tested: 100 nM)”. Besides, in test [4], the “100 nM Ag Bound” value amounted to 24 RU, the Kd is 20.7 nM, the off-rate (koff) came to 0.0137 s⁻¹ and the kon amounted to 662000 M⁻¹ s⁻¹. In test [4], this molecule returned a t1/2 of 0.8 min. In test [5], the “50 nM Ag Bound” value amounted to 13 RU, binding was put at a Kd of 12.2 nM, the koff was determined as 0.000183 s⁻¹ and the kon came to 15000 M⁻¹ s⁻¹. Also, in test [5], the t1/2 was 63 min. Further, the “100 nM Ag Bound” value in test [6] is -1 RU. The “100 nM Ag Bound” value in test [7] stood at 3 RU.

B5: H4H12913P2 (antibody, human IgG4 S228P, kappa, V domains shown)
VH: EVQLVESGGGVVRPGGSLRLSCAASGFTFDDYGMSWVRQAPGKGLEWISSINRNGGSADYADSVKGRFTISRDNAKNSLFLQMSSLRAEDTALYHCASGEFRFDYWGQGTLVTVSS
VL: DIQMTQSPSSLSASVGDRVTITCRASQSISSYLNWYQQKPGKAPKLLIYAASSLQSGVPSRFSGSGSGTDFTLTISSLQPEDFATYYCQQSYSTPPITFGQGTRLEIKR
notes: as for B1
B5: in test [1], the “50 nM Ag Bound” value came out at 12 RU, the Kd was determined as 1.3 nM, the off-rate constant (koff) amounted to 5.34e-05 s⁻¹ and the kon was 41200 M⁻¹ s⁻¹. The molecule further yielded a t1/2 in test [1] of 216 min. Also, in test [2], the “100 nM Ag Bound” value amounted to 1 RU and the binding result was “no binding (tested: 100 nM)”. For the same molecule, in test [3], the “100 nM Ag Bound” value came to 1 RU and the binding result is given as “no binding (tested: 100 nM)”. In addition, in test [4], the “100 nM Ag Bound” value came out at 20 RU, the dissociation constant (Kd) turned out to be 37.3 nM, the koff was determined as 0.00296 s⁻¹ and the on-rate (kon) stood at 79300 M⁻¹ s⁻¹. Besides, the t1/2 in test [4] worked out at 4 min. In test [5], the “50 nM Ag Bound” value worked out at 9 RU, the equilibrium dissociation constant (Kd) was 2.53 nM, the koff came to 0.000185 s⁻¹ and the on-rate (kon) was 73200 M⁻¹ s⁻¹. In test [5], the t1/2 came to 62 min. The “100 nM Ag Bound” value in test [6] came out at 0 RU. Further, the “100 nM Ag Bound” value in test [7] was found to be 3 RU.

These data come from patent US20200247894A1 (Regeneron, published 2020).
